Laboratory results taken from PMC3707205.

Biological target: NHR2-mH (TAT- and NLS-free NHR2 protein)
Assay: cross-linking; 20 μM protein in PBS, 0.01% glutaraldehyde, room temperature, various times; SDS-PAGE, coomassie staining

stoichiometry N: 4
Substance: NHR2-mH (TAT- and NLS-free NHR2 protein) (domain or fragment)
